Experiments:
Format in all cases: cell-based, rat
PKC isoforms = assay: Immunoblot of PKC isoform partitioning and down-regulation in cardiomyocytes; conditions: 400 ng/ml, early time points 30 min-2 hr
Description: rPMT selectively activates nPKC isoforms. […] Soluble extracts were prepared and separated by SDS-PAGE followed by immunodetection of total PKC isoform abundance with antibodies that are specific for the individual PKC isoforms (Panel A), or phosphorylated forms of PKC (largely PKCε) with a pan-phospho-PKC antibody (Panels B and C), as described in Methods below. GF109203 was included at 5 μM 30 min prior to stimulation as indicated.
(§1) Cells were maintained in culture in the presence of 10% FCS for 96 hr and then switched to serum-free medium for 24 hr prior to the addition of agonists as indicated. For PKC, extracts were prepared and subjected to SDS-PAGE to resolve individual isoforms according to methods described previously (14).
(§2) Specific immunoreactivity for individual PKC isoforms was quantified according to methods described previously. […] Bands were detected by enhanced chemiluminescence and blots were quantified by laser scanning densitometry.

AKT = assay: Phospho-AKT and total AKT Western blot in cardiomyocytes
Description: rPMT decreases basal AKT phosphorylation and prevents its phosphorylation by EGF. Neonatal rat cardiomyocytes were treated with rPMT (400 ng/ml) for 24 hr (Panel A), 48 hr (Panel B) or with EGF (50 ng/ml) for 5 min. Cell lysates were subjected to SDS-PAGE followed by Western blotting with antibodies that recognize the phosphorylated form or total AKT. Data are from representative gels, with similar results obtained in 3 separate experiments.
Panel A: Cells were treated with norepinephrine (NE, 10 μM) or PMA (100 nM) for 5 min without or with GF109203 (5 μM).
Panel B: Cells were treated with rPMT (400 ng/ml), NE (10 μM) or PMA (100 nM) for 24 hr without or with Go6983 (5 μM). […] Cell lysates were subjected to SDS-PAGE followed by Western blotting using a specific anti-phospho-AKT antibody. Data are from representative gels, with similar results obtained in 3 separate culture preparations.
(§3) Specific immunoreactivity for individual PKC isoforms was quantified according to methods described previously. For assays of MAPKs and AKT, cells were exposed to test agents as indicated in individual experimental protocols, washed three times with ice-cold calcium/magnesium-free Dulbecco's PBS (pH 7.1), scraped into ice-cold extraction buffer [20 mM β-glycerophosphate pH 7.5, 20 mM sodium fluoride, 2 mM EDTA, 0.2 mM sodium vanadate, 10 μg/ml aprotinin, 25 μg/ml leupeptin, 50 μg/ml PMSF, and 0.3% (v/v) β-mercaptoethanol], lysed by sonication, and centrifuged at 10,000 g for 10 min at 4° C. The supernatant was diluted in SDS-PAGE sample buffer, boiled for 5 min, and stored at −70° C. Western blot analysis was performed with antibodies that are selective for the phosphorylated (activated) forms of ERK1/2, p38-MAPK, JNK, AKT, and pan-PKC according to manufacturer's instructions. For each panel in each Figure, the results are from a single gel exposed for a uniform duration. Bands were detected by enhanced chemiluminescence and blots were quantified by laser scanning densitometry.

PKCδ and PKCε = assay: Immunoblot of nPKC isoform abundance in cardiomyocytes; conditions: 24 hr stimulation
Description: rPMT selectively activates nPKC isoforms. Cardiomyocyte cultures were incubated in culture medium without or with NE (10 μM), rPMT (400 ng/ml) or PMA (100 nM) for 24 hr (Panels A and C) or 5 min (Panel B). Soluble extracts were prepared and separated by SDS-PAGE followed by immunodetection of total PKC isoform abundance with antibodies that are specific for the individual PKC isoforms (Panel A), or phosphorylated forms of PKC (largely PKCε) with a pan-phospho-PKC antibody (Panels B and C), as described in Methods below. GF109203 was included at 5 μM 30 min prior to stimulation as indicated.
as §1, §2

ERK1/2 = assay: Phospho-ERK1/2 Western blot in cardiomyocytes
Description: rPMT promotes the activation of ERK1/2, JNK and p38-MAPK cascades. Incubations were for 24 hr in the presence of the indicated concentrations of rPMT. PMA (100 nM, 5 min) and sorbitol ([…], 5 min) were included as positive controls. Cell lysates were subjected to SDS-PAGE followed by Western blotting as described in Methods below. Phosphorylated forms of ERK1/2 (A), p38 MAP kinase (B) or JNK (C) were detected by specific anti-phospho-ERK1/2, -p38 MAP kinase or -JNK antibodies, respectively. Blots were stripped and subjected to immunoblot analysis with total ERK1/2 or p38 MAP kinase to normalize for minor variations in protein loading (Panels A and B). Top: representative autoradiograms (with each lane from a single gel exposed for the same duration). Bottom: quantification of each series of experiments (n=3).
rPMT transactivation of the EGF receptor in cardiac fibroblasts, but not cardiomyocytes. Neonatal rat cardiomyocytes (Panel A) and cardiac fibroblasts (Panel B) were treated with rPMT (400 ng/ml) for 24 hr or EGF (50 ng/ml) for 5 min without or with AG1478 (2 μM, starting 30 min prior to stimulation). Cell lysates were subjected to SDS-PAGE followed by Western blotting with the anti-phospho-ERK1/2 antibody. Data are from a representative gel, with similar results obtained in 3 separate experiments.
as §3

ANF mRNA = assay: Northern blot analysis of ANF mRNA in cardiomyocytes; conditions: rPMT 400 ng/ml or NE 10 μM, 48 hr, serum-free
Description: rPMT mimics the effect of norepinephrine to promote cardiomyocyte hypertrophy. Cardiomyocytes were cultured in serum-free medium without or with rPMT (400 ng/ml) or norepinephrine (NE, 10 μM) for 48 hr. Cardiomyocytes were fixed, permeabilized, and stained with monoclonal anti-α-actinin sarcomeric (Panel A, magnification×100) or subjected to Northern blot analysis for measurements of steady-state ANF mRNA expression (Panel B). Effects of rPMT (black bars) and NE (gray bars) vs. vehicle (white bars) on sarcomeric organization (Panel C), cell size (Panel D), and protein synthesis (Panel E) are illustrated (n=3 for each).
Total RNA from neonatal rat cardiomyocytes were isolated by using a Qiagen kit according to manufacturer's instructions. A rat ANF cDNA probe (˜600 bp) was labeled with [^32P]dCTP. 10 μ/g of total RNA was separated on a 1% agarose gel and transferred to a nylon membrane (Amersham). Prehybridization and hybridization were performed according to standard methods. Normalization of signals was performed with a glyceraldehyde-3-phosphate dehydrogenase probe. Signals were detected by Phosphorimage analysis.

B1: rPMT: recombinant Pasteurella multocida toxin, a Gαq agonist used as pharmacological probe (protein, UniProt P17452 1-1285, looked up)
Dermonecrotic toxin: MKTKHFFNSDFTVKGKSADEIFRRLCTDHPDKQLNNVKWKEVFINRFGQMMLDTPNPRKIVEKIINEGLEKQGLKNIDPETTYFNIFSSSDSSDGNVFHYNSLSESYRVTDACLMNIFVERYFDDWDLLNSLASNGIYSVGKEGAYYPDHDYGPEYNPVWGPNEQIYHSRVIADILYARSVWDEFKKYFMEYWQKYAQLYTEMLSDTFLAMAIQQYTRQTLTDEGFLMVCNTYYGNKEEVQITLLDIYGYPSTDIICIEQKGLPTPKVILYIPGGTQPFVEFLNTDDLKQWIAWHLKDNKHMVAFRKHFSLKQRQEGETFTGIDKALQYIAEESPEWPANKYILYNPTHLETENLFNIMMKRTEQRMLEDSDVQIRSNSEATRDYALSLLETFISQLSAIDMLVPAVGIPINFALSATALGLSSDIVVNGDSYEKRKYGIGSLVQSALFTGINLIPVISETAEILSSFSRTEEDIPAFFTEEQALAQRFEIVEEELHSISPDDPPREITDENLHKIRLVRLNNENQPLVVLRRLGGNKFIRIEPITFQEIKGSLVSEVINPVTNKTYYVSNAKLLGGSPYSPFRIGLEGVWTPEVLKARASVIGKPIGESYKRILAKLQRIHNSNILDERQGLMHELMELIDLYEESQPSSERLNAFRELRTQLEKALYLPEMEALKKQILQIPNKGSGAARFLLRTAMNEMAGKTSESTADLIRFALQDTVISAPFRGYAGAIPEAIDFPVKYVIEDISVFDKIQTNYWELPAYESWNEGSNSALLPGLLRESQSKGMLSKCRIIENSLYIGHSYEEMFYSISPYSNQVGGPYELYPFTFFSMLQEVQGDLGFEQAFATRNFFNTLVSDRLSLMENTMLLTESFDYTPWDAIYGDINYDEQFAAMSINERIEKCMNTYRGVAFQNSSKSIDFFLNNLTTFIDNGLTEIAISDLPYDIVQQEISQFLQGSNEWKTLDAMLFNLDKGDINGAFRKLLQSAKDNNIKFRAIGHSDNSVPPFNNPYKSLYYKGNIIAEAIEKLDREGQKFVVFADSSLLNSTPGTGRPMPGLVQYLKIPATVVDSDGAWQFLPDVASSRVPIEVTELENWQVLTPPQGKILGLKQFKLTAGFPTEQSRLPLLENSVSEDLREELMQKIDAIKNDVKMNSLVCMEAGSCDSVSPKVAARLKDMGLEAGMGASITWWRREGGMEFSHQMHTTASFKFAGKEFAVDASHLQFVHDQLDTTILILPVDDWALEIAQRNRAINPFVEYVSKTGNMLALFMPPLFTKPRLTRAL
**Q.** How did the “partitioning of PKC isoforms between soluble and particulate fractions” value (PKC isoforms) turn out when B1 was run?
**A.** The value was “does not detectably alter”.

**Q.** What about the “total AKT immunoreactivity, treated vs control cultures” value (AKT) of the same molecule?
**A.** Its value is “similar”.

**Q.** And the “basal AKT phosphorylation after 24 hr treatment” value (AKT; 24 hr, relative to control cultures)?
**A.** Its value is “reduced basal AKT phosphorylation”.

**Q.** And the “effect on AKT activation by EGF” value (AKT; rPMT-treated cultures)?
**A.** The value was “blunted”.

**Q.** And the “abundance of PKC-δ and PKC-ε in the particulate fraction” value (PKCδ and PKCε)?
**A.** Its value is “remains relatively preserved”.

**Q.** What about the “abundance of PKCδ and PKCε in the soluble fraction” value (PKCδ and PKCε) of the same molecule?
**A.** The value was “significantly reduce”.

**Q.** What about the “expression of total ERK1/2 protein” value (ERK1/2) of the same molecule?
**A.** Its value is “does not significantly alter”.

**Q.** And the “signaling through the ERK1/2 cascade (phosphorylation of terminal kinase)” value (ERK1/2; 24 hr, indicated concentrations)?
**A.** Its value is “dose-dependent increases”.

**Q.** And the “magnitude of ERK1/2 activation” value (ERK1/2; comparable to acute stimulation with PMA)?
**A.** Its value is “quite robust”.

**Q.** What about the “time at which ERK1/2 activation is detectable” value (ERK1/2; increased progressively for 24 hr) of the same molecule?
**A.** The value was 1 h.

**Q.** What about the “ANF mRNA expression” value (ANF mRNA) of the same molecule?
**A.** Its value is “induce ANF mRNA expression”.
